Test results from patent US20240050568A1 (NANJING IASO BIOTECHNOLOGY, published 2024).
One block for each binder: values may come before it.

Key:
[1] = biological target: T1, CD5 antigen (Acro, CD5-H52H5) (UniProt P06127 25-371); assay: BLI (Octet), IgG loaded on the biosensor, CD5 antigen 100 to 1.563 nM, 1:1 model
T1 construct: Bought protein
T1 sequence (looked up): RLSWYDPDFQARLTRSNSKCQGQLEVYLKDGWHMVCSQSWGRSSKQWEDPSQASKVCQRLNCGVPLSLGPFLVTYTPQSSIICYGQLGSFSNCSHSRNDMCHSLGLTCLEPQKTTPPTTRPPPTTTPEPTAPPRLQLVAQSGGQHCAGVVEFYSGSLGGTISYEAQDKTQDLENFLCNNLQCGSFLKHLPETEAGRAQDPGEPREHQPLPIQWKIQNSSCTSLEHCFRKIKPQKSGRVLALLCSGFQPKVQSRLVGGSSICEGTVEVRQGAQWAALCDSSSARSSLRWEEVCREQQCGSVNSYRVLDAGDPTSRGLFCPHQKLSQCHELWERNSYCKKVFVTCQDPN

[2] = biological target: T2, human CD5 expressed on cells (human, UniProt P06127 25-495); assay: flow cytometry on SUP-T1-Luc cells (called Kd in paragraph 233); average of three experiments
T2 construct: whole, on cells; also called CD5 positive target cells; CCRF-CEM-Luc
T2 sequence (looked up): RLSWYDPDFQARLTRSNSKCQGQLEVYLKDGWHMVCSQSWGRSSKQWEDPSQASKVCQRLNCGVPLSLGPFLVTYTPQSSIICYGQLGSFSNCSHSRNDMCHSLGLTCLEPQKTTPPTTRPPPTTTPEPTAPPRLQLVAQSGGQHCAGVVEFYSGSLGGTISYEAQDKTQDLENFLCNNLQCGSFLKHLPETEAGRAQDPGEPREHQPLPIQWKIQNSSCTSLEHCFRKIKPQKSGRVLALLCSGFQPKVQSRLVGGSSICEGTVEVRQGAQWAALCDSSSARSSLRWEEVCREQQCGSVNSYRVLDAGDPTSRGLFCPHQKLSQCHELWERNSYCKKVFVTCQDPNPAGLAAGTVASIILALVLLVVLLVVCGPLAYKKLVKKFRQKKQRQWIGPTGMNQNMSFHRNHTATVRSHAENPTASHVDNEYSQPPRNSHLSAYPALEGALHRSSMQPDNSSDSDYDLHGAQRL
Description: (§1) The relationship between the percentage of fluorescence-labeled positive CD5⁺ target cells and different concentrations of CD5 tandem single-domain antibody was analyzed by fitting using Graphpad Prism software to calculate the EC50 constant. A total of three independent repetitions were performed in this experiment.

[3] = biological target: T2, human CD5 expressed on cells; assay: flow cytometry on CCRF-CEM-Luc cells (called Kd in paragraph 233); average of three experiments
Description: as §1

[4] = biological target: T2, human CD5 expressed on cells; assay: flow cytometry on JVM-2-Luc-CD5 cells (called Kd in paragraph 233); average of three experiments
Description: as §1

[5] = biological target: T2, human CD5 expressed on cells; assay: flow cytometry on MEC-1-CD5-Luc cells (called Kd in paragraph 233); average of three experiments
Description: as §1

[6] = biological target: T2, human CD5 expressed on cells; assay: flow cytometry on SUP-T1-Luc cells, percent positive cells fitted (called Kd in paragraph 233); 1st time
Description: as §1

[7] = biological target: T2, human CD5 expressed on cells; assay: flow cytometry on SUP-T1-Luc cells, percent positive cells fitted (called Kd in paragraph 233); 2nd time
Description: as §1

[8] = biological target: T2, human CD5 expressed on cells; assay: flow cytometry on SUP-T1-Luc cells, percent positive cells fitted (called Kd in paragraph 233); 3rd time
Description: as §1

[9] = biological target: T2, human CD5 expressed on cells; assay: flow cytometry on CCRF-CEM-Luc cells, percent positive cells fitted (called Kd in paragraph 233); 1st time
Description: as §1

[10] = biological target: T2, human CD5 expressed on cells; assay: flow cytometry on CCRF-CEM-Luc cells, percent positive cells fitted (called Kd in paragraph 233); 2nd time
Description: as §1

[11] = biological target: T2, human CD5 expressed on cells; assay: flow cytometry on CCRF-CEM-Luc cells, percent positive cells fitted (called Kd in paragraph 233); 3rd time
Description: as §1

[12] = biological target: T2, human CD5 expressed on cells; assay: flow cytometry on JVM-2-Luc-CD5 cells, percent positive cells fitted (called Kd in paragraph 233); 1st time
Description: as §1

[13] = biological target: T2, human CD5 expressed on cells; assay: flow cytometry on JVM-2-Luc-CD5 cells, percent positive cells fitted (called Kd in paragraph 233); 2nd time
Description: as §1

[14] = biological target: T2, human CD5 expressed on cells; assay: flow cytometry on JVM-2-Luc-CD5 cells, percent positive cells fitted (called Kd in paragraph 233); 3rd time
Description: as §1

[15] = biological target: T2, human CD5 expressed on cells; assay: flow cytometry on MEC-1-CD5-Luc cells, percent positive cells fitted (called Kd in paragraph 233); 1st time
Description: as §1

[16] = biological target: T2, human CD5 expressed on cells; assay: flow cytometry on MEC-1-CD5-Luc cells, percent positive cells fitted (called Kd in paragraph 233); 2nd time
Description: as §1

[17] = biological target: T2, human CD5 expressed on cells; assay: flow cytometry on MEC-1-CD5-Luc cells, percent positive cells fitted (called Kd in paragraph 233); 3rd time
Description: as §1

[18] = biological target: T2, human CD5 expressed on cells; assay: cell-based or functional assay
[19] = biological target: T3, fluorescent dye-labeled human CD5 protein (human, UniProt P06127 25-371, limits assumed, fluorescent dye label (dye and sites not stated)); assay: flow cytometry: CT125A cells with graded fluorescent human CD5 protein; average of three experiments
T3 construct: also called human CD5 antigen
T3 sequence (looked up): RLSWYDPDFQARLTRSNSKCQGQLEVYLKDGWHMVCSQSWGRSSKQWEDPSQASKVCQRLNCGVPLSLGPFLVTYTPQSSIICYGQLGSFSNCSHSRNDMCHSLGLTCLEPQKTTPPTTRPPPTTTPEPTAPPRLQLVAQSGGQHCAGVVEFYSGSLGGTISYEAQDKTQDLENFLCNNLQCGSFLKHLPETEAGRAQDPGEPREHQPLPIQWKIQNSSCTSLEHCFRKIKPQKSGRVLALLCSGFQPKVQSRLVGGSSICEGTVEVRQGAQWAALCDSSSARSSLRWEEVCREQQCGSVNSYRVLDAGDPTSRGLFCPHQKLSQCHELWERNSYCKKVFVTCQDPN
Text: (§2) The relationship between the percentage of the fluorescence-labeled CAR+positive cells and the concentration of CD5 protein was fitted by Graphpad Prism software to calculate the affinity EC50 constant. This experiment was completed by Shanghai IASO Biotherapeutics Co., Ltd., and a total of three independent experiments were repeated.

[20] = biological target: T3, fluorescent dye-labeled human CD5 …; assay: flow cytometry: CT125A cells with graded fluorescent human CD5 protein, percent labelled CAR+ cells fitted; 1st time
Text: as §2

[21] = biological target: T3, fluorescent dye-labeled human CD5 …; assay: flow cytometry: CT125A cells with graded fluorescent human CD5 protein, percent labelled CAR+ cells fitted; 2nd time
Text: as §2

[22] = biological target: T3, fluorescent dye-labeled human CD5 …; assay: flow cytometry: CT125A cells with graded fluorescent human CD5 protein, percent labelled CAR+ cells fitted; 3rd time
Text: as §2

- Kd [1]: 2.9 nM
- koff [1]: 0.000139 s⁻¹
- kon [1]: 48000 M⁻¹ s⁻¹
B1: FHVH1 (#42 IgG) (Fc fusion)
chain: EVQLLESGGGLVQPGGSLRLSCAASGFTFSHSAMGWVRQAPGKGLEWVSSIYARGGYTYYADSVKGRFTISRDNSKNTLYLQMNSLRAEDTAVYYCARGYHLEYMVSQDVWGQGTLVTVSS
notes: also called #42 clone; anti-CD5 IgG; not shown: human IgG4 Fc

- Kd [1]: 8.32 nM
- koff [1]: 0.000212 s⁻¹
- kon [1]: 25500 M⁻¹ s⁻¹
B2: FHVH2 (#60 IgG) (Fc fusion)
chain: QVQLVESGGGLVQPGGSLRLSCAASGFTFSSYEMNWVRQAPGKGLEWVSYISSSGSTIYYADSVKGRFTISRDNAKNSLYLQMNSLRAEDTAVYYCARVAQREGDVWGKGTTVTVSS
notes: also called anti-CD5 IgG; not shown: human IgG4 Fc

- Kd [1]: 3.96 nM
- koff [1]: 0.000288 s⁻¹
- kon [1]: 72800 M⁻¹ s⁻¹
B3: FHVH3 (#61 IgG) (Fc fusion)
chain: QVQLVQSGAEVKKPGSSVKVSCKASGGTFSNYAISWVRQAPGQGLEWMGWISAYNGDTKYAQRLQGRVTMTTDTSTSTAYMELRNLRSDDTAVYYCARYESMSGQDIWGQGTLVTVSS
notes: also called #61 clone; anti-CD5 IgG; not shown: human IgG4 Fc

- Kd [1]: 27.4 nM
- koff [1]: 0.000309 s⁻¹
- kon [1]: 12500 M⁻¹ s⁻¹
B4: FHVH4 (#62 IgG) (Fc fusion)
chain: QVQLVQSGAEVKKPGESLRISCKASGYSFSNHWIGWVRQKPGKGLEWMGSVYPGDSDTRYSPSFQGHVTVSADKSMNTAYLQWSSLKTSDTAMYYCARGGTIDGDYGGRQDFWGQGTMVTVSS
notes: as for B2

- Kd [1]: 1.67 nM
- koff [1]: 0.000189 s⁻¹
- kon [1]: 113000 M⁻¹ s⁻¹
B5: FHVH3VH1 (#61-42 IgG) (Fc fusion)
chain: QVQLVQSGAEVKKPGSSVKVSCKASGGTFSNYAISWVRQAPGQGLEWMGWISAYNGDTKYAQRLQGRVTMTTDTSTSTAYMELRNLRSDDTAVYYCARYESMSGQDIWGQGTLVTVSSGGGGSGGGGSGGGGSEVQLLESGGGLVQPGGSLRLSCAASGFTFSHSAMGWVRQAPGKGLEWVSSIYARGGYTYYADSVKGRFTISRDNSKNTLYLQMNSLRAEDTAVYYCARGYHLEYMVSQDVWGQGTLVTVSS
notes: as for B2

- EC50 [2]: 4.02 nM
- EC50 [3]: 2.99 nM
- EC50 [4]: 0.64 nM
- EC50 [5]: 1.14 nM
- EC50 [6]: 2.72 nM
- EC50 [7]: 4.58 nM
- EC50 [8]: 4.75 nM
- EC50 [9]: 3.04 nM
- EC50 [10]: 2.54 nM
- EC50 [11]: 3.39 nM
- EC50 [12]: 0.64 nM
- EC50 [13]: 0.56 nM
- EC50 [14]: 0.72 nM
- EC50 [15]: 1.3 nM
- EC50 [16]: 0.92 nM
- EC50 [17]: 1.2 nM
B6: CT125A tandem single-domain antibody rabbit FC fusion protein RD125 61-42 rFc (Fc fusion)
chain: QVQLVQSGAEVKKPGSSVKVSCKASGGTFSNYAISWVRQAPGQGLEWMGWISAYNGDTKYAQRLQGRVTMTTDTSTSTAYMELRNLRSDDTAVYYCARYESMSGQDIWGQGTLVTVSSGGGGSGGGGSGGGGSEVQLLESGGGLVQPGGSLRLSCAASGFTFSHSAMGWVRQAPGKGLEWVSSIYARGGYTYYADSVKGRFTISRDNSKNTLYLQMNSLRAEDTAVYYCARGYHLEYMVSQDVWGQGTLVTVSS
notes: also called CD5 tandem single-domain antibody rabbit Fc fusion protein; not shown: rabbit Fc

- EC50 [19]: 2.07 nM
- EC50 [20]: 3.82 nM
- EC50 [21]: 1.22 nM
- EC50 [22]: 1.18 nM
B7: FHVH3VH1 CAR (other)
chain: QVQLVQSGAEVKKPGSSVKVSCKASGGTFSNYAISWVRQAPGQGLEWMGWISAYNGDTKYAQRLQGRVTMTTDTSTSTAYMELRNLRSDDTAVYYCARYESMSGQDIWGQGTLVTVSSGGGGSGGGGSGGGGSEVQLLESGGGLVQPGGSLRLSCAASGFTFSHSAMGWVRQAPGKGLEWVSSIYARGGYTYYADSVKGRFTISRDNSKNTLYLQMNSLRAEDTAVYYCARGYHLEYMVSQDVWGQGTLVTVSSFVPVFLPAKPTTTPAPRPPTPAPTIASQPLSLRPEACRPAAGGAVHTRGLDFACDIYIWAPLAGTCGVLLLSLVITLYCNHRNKRGRKKLLYIFKQPFMRPVQTTQEEDGCSCRFPEEEEGGCELRVKFSRSADAPAYQQGQNQLYNELNLGRREEYDVLDKRRGRDPEMGGKPRRKNPQEGLYNELQKDKMAEAYSEIGMKGERRRGKGHDGLYQGLSTATKDTYDALHMQALPPR
notes: Signal peptide left out; T2A remnant at the C-terminus not written; also called CT125A; CT125A injection
- cytotoxicity on CCRF-CEM-Luc cells, effector-target ratio 1:1 [18]: 95.6%
- cytotoxicity on CCRF-CEM-Luc cells, effector-target ratio 2:1 [18]: 96.9%
- cytotoxicity on JVM-2-Luc-CD5 cells, effector-to-target ratio 5:1 [18]: 96.4%
- cytotoxicity on JVM-2-Luc-CD5 cells, effector-to-target ratio 10:1 [18]: 98.5%
- cytotoxicity on MEC-1-CD5-Luc cells, effector-to-target ratio 1:1 [18]: 97.7%
- cytotoxicity on MEC-1-CD5-Luc cells, effector-to-target ratio 2:1 [18]: 98.2%
- cytotoxicity on SUP-T1-Luc cells, effector-target ratio 1:1 [18]: 56.9%
- cytotoxicity on SUP-T1-Luc cells, effector-target ratio 2:1 [18]: 91%
